Experimental data: the supplement of paper PMC9112550, “Optimization of the antimicrobial peptide Bac7 by deep mutational scanning” (BMC Biology, 2022)

System: Escherichia coli TOP10
Experiment: shrunken log2 fold change of peptide-encoding DNA abundance (4.5 h post-induction vs induction); higher = less antimicrobial activity (less host growth inhibition)
Conditions: time post-induction: 4.5 h; library: site-saturation at positions 5, 18, 19, 20
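Also: peptides expressed intracellularly from a pBAD plasmid library in pooled LB shake-flask culture, induced with 0.3% L-arabinose, DNA abundance read by NGS, three biological replicates, DESeq2 with apeglm shrinkage.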

Sequence | shrunken log2 fold change
RRIRARPPRLPRPRPRPWYDPRP | -0.32
RRIRFRPPRLPRPRPRPLKIPRP | -0.24
RRIRERPPRLPRPRPRPQNEPRP | -0.581
RRIRQRPPRLPRPRPRPCGCPRP | 0.164
RRIRLRPPRLPRPRPRPPYAPRP | 0.296
RRIRMRPPRLPRPRPRPPCWPRP | 0.162
RRIRCRPPRLPRPRPRPPEMPRP | 0.67
RRIRDRPPRLPRPRPRPSPLPRP | -0.126
RRIRWRPPRLPRPRPRPEHDPRP | -0.0282
RRIRTRPPRLPRPRPRPDYHPRP | -0.699
RRIRRRPPRLPRPRPRPGPGPRP | 0.598
RRIRARPPRLPRPRPRPQGFPRP | 0.807
RRIRGRPPRLPRPRPRPSRHPRP | 0.0789
RRIRYRPPRLPRPRPRPWINPRP | -0.803
RRIRRRPPRLPRPRPRPKMKPRP | 0.316
RRIRARPPRLPRPRPRPQLPPRP | 0.327
RRIRNRPPRLPRPRPRPNTEPRP | -0.206
RRIRLRPPRLPRPRPRPKIAPRP | -0.203
RRIRSRPPRLPRPRPRPWQRPRP | 0.074
RRIRVRPPRLPRPRPRPYTGPRP | -0.0211
RRIRTRPPRLPRPRPRPENGPRP | 0.0885
RRIRTRPPRLPRPRPRPCRSPRP | -0.0198
RRIRMRPPRLPRPRPRPEFPPRP | 0.745
RRIRFRPPRLPRPRPRPCGQPRP | 0.151
RRIRFRPPRLPRPRPRPKYKPRP | -0.63

Sequence | shrunken log2 fold change
RRIRWRPPRLPRPRPRPKALPRP | 0.237
RRIRERPPRLPRPRPRPMVQPRP | 0.00276
RRIRRRPPRLPRPRPRPYNMPRP | -0.499
RRIRVRPPRLPRPRPRPDDTPRP | -0.00824
RRIRDRPPRLPRPRPRPHHCPRP | -0.126
RRIRNRPPRLPRPRPRPGAHPRP | 0.0408
RRIRPRPPRLPRPRPRPQATPRP | -0.2
RRIRYRPPRLPRPRPRPWCQPRP | -0.243
RRIRVRPPRLPRPRPRPDHGPRP | -0.0218
RRIRKRPPRLPRPRPRPWETPRP | 0.696
RRIRGRPPRLPRPRPRPCDTPRP | 0.13
RRIRDRPPRLPRPRPRPTESPRP | -0.00177
RRIRARPPRLPRPRPRPGWLPRP | 0.285
RRIRWRPPRLPRPRPRPANYPRP | -0.0848
RRIRVRPPRLPRPRPRPYFYPRP | -0.474
RRIRVRPPRLPRPRPRPYVTPRP | 0.0974
RRIRFRPPRLPRPRPRPKDFPRP | -0.158
RRIRLRPPRLPRPRPRPNFGPRP | 0.0635
RRIRNRPPRLPRPRPRPDTQPRP | -0.149
RRIRVRPPRLPRPRPRPCHIPRP | -0.312
RRIRWRPPRLPRPRPRPEQLPRP | 0.00937
RRIRNRPPRLPRPRPRPAYIPRP | -0.786
RRIRQRPPRLPRPRPRPEWFPRP | -0.00295
RRIRQRPPRLPRPRPRPVLCPRP | -0.238
RRIRHRPPRLPRPRPRPWNMPRP | -0.14

Sequence | shrunken log2 fold change
RRIRIRPPRLPRPRPRPSEVPRP | 0.0174
RRIRWRPPRLPRPRPRPSPSPRP | 0.375
RRIRCRPPRLPRPRPRPFQLPRP | -1.02
RRIRERPPRLPRPRPRPMFDPRP | -0.121
RRIRSRPPRLPRPRPRPQFYPRP | -0.769
RRIRLRPPRLPRPRPRPCIPPRP | -0.194
RRIRGRPPRLPRPRPRPLCRPRP | 0.598
RRIRERPPRLPRPRPRPWYWPRP | 0.0516
RRIRHRPPRLPRPRPRPRDYPRP | 0.0554
RRIRGRPPRLPRPRPRPVSTPRP | 0.691
RRIRNRPPRLPRPRPRPLDIPRP | 0.0164
RRIRQRPPRLPRPRPRPADSPRP | -0.00947
RRIRPRPPRLPRPRPRPHYSPRP | -0.167
RRIRPRPPRLPRPRPRPVSQPRP | -0.0764
RRIRSRPPRLPRPRPRPFHSPRP | -0.0807
RRIRERPPRLPRPRPRPIPAPRP | -0.0833
RRIRMRPPRLPRPRPRPPNTPRP | 0.431
RRIRHRPPRLPRPRPRPLLSPRP | -0.0464
RRIRYRPPRLPRPRPRPEPKPRP | 0.0661
RRIRFRPPRLPRPRPRPQHQPRP | -0.185
RRIRLRPPRLPRPRPRPWYHPRP | 0.112
RRIRFRPPRLPRPRPRPHHLPRP | -1.06
RRIRNRPPRLPRPRPRPGNYPRP | 0.224
RRIRSRPPRLPRPRPRPDDPPRP | 0.0348
RRIRPRPPRLPRPRPRPPGQPRP | 0.141

Sequence | shrunken log2 fold change
RRIRMRPPRLPRPRPRPKQRPRP | 1.1
RRIRPRPPRLPRPRPRPYEPPRP | -0.317
RRIRFRPPRLPRPRPRPDMWPRP | -1.03
RRIRDRPPRLPRPRPRPGEFPRP | -0.117
RRIRARPPRLPRPRPRPCCIPRP | 0.13
RRIRGRPPRLPRPRPRPPFLPRP | 0.444
RRIRHRPPRLPRPRPRPPPEPRP | 0.836
RRIRSRPPRLPRPRPRPPDHPRP | 0.202
RRIRLRPPRLPRPRPRPAEHPRP | 0.141
RRIRARPPRLPRPRPRPSMLPRP | 0.0741
RRIRPRPPRLPRPRPRPGEFPRP | 0.318
RRIRHRPPRLPRPRPRPMTCPRP | -0.137
RRIRRRPPRLPRPRPRPLKVPRP | 0.0966
RRIRQRPPRLPRPRPRPGASPRP | 0.326
RRIRTRPPRLPRPRPRPVARPRP | 2.14
RRIRIRPPRLPRPRPRPPYPPRP | -0.188
RRIRQRPPRLPRPRPRPSIPPRP | -0.751
RRIRVRPPRLPRPRPRPAGIPRP | 0.165
RRIRSRPPRLPRPRPRPKDGPRP | 0.307
RRIRNRPPRLPRPRPRPFAVPRP | -0.398
RRIRERPPRLPRPRPRPTNCPRP | -0.165
RRIRTRPPRLPRPRPRPDVRPRP | -0.31
RRIRYRPPRLPRPRPRPIGHPRP | 3.4
RRIRTRPPRLPRPRPRPKMYPRP | -0.52
RRIRRRPPRLPRPRPRPTIEPRP | 0.212

Sequence | shrunken log2 fold change
RRIRKRPPRLPRPRPRPVFNPRP | 0.117
RRIRLRPPRLPRPRPRPETEPRP | 0.0833
RRIRRRPPRLPRPRPRPSDCPRP | -0.0825
RRIRFRPPRLPRPRPRPHSCPRP | -0.249
RRIRPRPPRLPRPRPRPIQAPRP | 0.144
RRIRPRPPRLPRPRPRPIECPRP | -0.206
RRIRVRPPRLPRPRPRPRWRPRP | 0.587
RRIRYRPPRLPRPRPRPCYNPRP | -0.857
RRIRWRPPRLPRPRPRPACKPRP | -0.0942
RRIRMRPPRLPRPRPRPELEPRP | 4.13
RRIRGRPPRLPRPRPRPALYPRP | 0.363
RRIRARPPRLPRPRPRPEKAPRP | 0.046
RRIRFRPPRLPRPRPRPAAIPRP | 1.19
RRIRQRPPRLPRPRPRPPWMPRP | 0.172
RRIRQRPPRLPRPRPRPGKYPRP | -0.17
RRIRGRPPRLPRPRPRPREHPRP | 0.783
RRIRMRPPRLPRPRPRPTFYPRP | -0.157
RRIRTRPPRLPRPRPRPFMMPRP | -0.203
RRIRDRPPRLPRPRPRPTFCPRP | 0.164
RRIRMRPPRLPRPRPRPGWKPRP | 0.0184
RRIRCRPPRLPRPRPRPPSEPRP | 0.102
RRIRIRPPRLPRPRPRPKEHPRP | -0.15
RRIRDRPPRLPRPRPRPKDPPRP | -0.00415
RRIRHRPPRLPRPRPRPGHCPRP | -0.133
RRIRVRPPRLPRPRPRPTCGPRP | 0.0207

Sequence | shrunken log2 fold change
RRIRRRPPRLPRPRPRPPKWPRP | 0.628
RRIRVRPPRLPRPRPRPIATPRP | 0.141
RRIRERPPRLPRPRPRPHYRPRP | 0.05
RRIRLRPPRLPRPRPRPLMVPRP | -0.326
RRIRHRPPRLPRPRPRPNMIPRP | -0.928
RRIRRRPPRLPRPRPRPFCGPRP | 0.143
RRIRVRPPRLPRPRPRPWEWPRP | 0.0039
RRIRDRPPRLPRPRPRPLHNPRP | -0.338
RRIRLRPPRLPRPRPRPNLLPRP | 0.153
RRIRARPPRLPRPRPRPYEDPRP | -0.117
RRIRKRPPRLPRPRPRPYLRPRP | -0.0481
RRIRLRPPRLPRPRPRPLWWPRP | 0.531
RRIRRRPPRLPRPRPRPMKKPRP | -0.0239
RRIRGRPPRLPRPRPRPSPYPRP | -0.148
RRIRVRPPRLPRPRPRPFWYPRP | -0.308
RRIRLRPPRLPRPRPRPMKWPRP | 0.0101
RRIRCRPPRLPRPRPRPLYLPRP | -0.493
RRIRCRPPRLPRPRPRPNFVPRP | -0.123
RRIRCRPPRLPRPRPRPFCDPRP | -0.501
RRIRFRPPRLPRPRPRPHKSPRP | -0.396
RRIRIRPPRLPRPRPRPRYGPRP | -0.411
RRIRQRPPRLPRPRPRPLLHPRP | -0.182
RRIRARPPRLPRPRPRPYFHPRP | -0.444
RRIRKRPPRLPRPRPRPARVPRP | 0.857
RRIRFRPPRLPRPRPRPSSVPRP | -0.503
